B1: E3 ubiquitin-protein ligase CBL-B (Homo sapiens), Q13191 (parent)
chain: MANSMNGRNPGGRGGNPRKGRILGIIDAIQDAVGPPKQAAADRRTVEKTWKLMDKVVRLCQNPKLQLKNSPPYILDILPDTYQHLRLILSKYDDNQKLAQLSENEYFKIYIDSLMKKSKRAIRLFKEGKERMYEEQSQDRRNLTKLSLIFSHMLAEIKAIFPNGQFQGDNFRITKADAAEFWRKFFGDKTIVPWKVFRQCLHEVHQISSGLEAMALKSTIDLTCNDYISVFEFDIFTRLFQPWGSILRNWNFLAVTHPGYMAFLTYDEVKARLQKYSTKPGSYIFRLSCTRLGQWAIGYVTGDGNILQTIPHNKPLFQALIDGSREGFYLYPDGRSYNPDLTGLCEPTPHDHIKVTQEQYELYCEMGSTFQLCKICAENDKDVKIEPCGHLMCTSCLTAWQESDGQGCPFCRCEIKGTEPIIVDPFDPRDEGSRCCSIIDPFGMPMLDLDDDDDREESLMMNRLANVRKCTDRQNSPVTSPGSSPLAQRRKPQPDPLQIPHLSLPPVPPRLDLIQKGIVRSPCGSPTGSPKSSPCMVRKQDKPLPAPPPPLRDPPPPPPERPPPIPPDNRLSRHIHHVESVPSRDPPMPLEAWCPRDVFGTNQLVGCRLLGEGSPKPGITASSNVNGRHSRVGSDPVLMRKHRRHDLPLEGAKVFSNGHLGSEEYDVPPRLSPPPPVTTLLPSIKCTGPLANSLSEKTRDPVEEDDDEYKIPSSHPVSLNSQPSHCHNVKPPVRSCDNGHCMLNGTHGPSSEKKSNIPDLSIYLKGDVFDSASDPVPLPPARPPTRDNPKHGSSLNRTPSDYDLLIPPLGEDAFDALPPSLPPPPPPARHSLIEHSKPPGSSSRPSSGQDLFLLPSDPFVDLASGQVPLPPARRLPGENVKTNRTSQDYDQLPSCSDGSQAPARPPKPRPRRTAPEIHHRKPHGPEAALENVDAKIAKLMGEGYAFEEVKRALEIAQNNVEVARSILREFAFPPPVSPRLNL

Variants of B1 are the subject of the first test. Conditions: with cd2ap_human CD2AP.
In the case of R904G, the “effect of a mutation on the interaction” value is “decreasing interaction”.

The variants in the next test derive from B1. Conditions: with sh3k1_human SH3KBP1, Q96B97.
sh3k1_human SH3KBP1, Q96B97, sequence (Q96B97 whole entry): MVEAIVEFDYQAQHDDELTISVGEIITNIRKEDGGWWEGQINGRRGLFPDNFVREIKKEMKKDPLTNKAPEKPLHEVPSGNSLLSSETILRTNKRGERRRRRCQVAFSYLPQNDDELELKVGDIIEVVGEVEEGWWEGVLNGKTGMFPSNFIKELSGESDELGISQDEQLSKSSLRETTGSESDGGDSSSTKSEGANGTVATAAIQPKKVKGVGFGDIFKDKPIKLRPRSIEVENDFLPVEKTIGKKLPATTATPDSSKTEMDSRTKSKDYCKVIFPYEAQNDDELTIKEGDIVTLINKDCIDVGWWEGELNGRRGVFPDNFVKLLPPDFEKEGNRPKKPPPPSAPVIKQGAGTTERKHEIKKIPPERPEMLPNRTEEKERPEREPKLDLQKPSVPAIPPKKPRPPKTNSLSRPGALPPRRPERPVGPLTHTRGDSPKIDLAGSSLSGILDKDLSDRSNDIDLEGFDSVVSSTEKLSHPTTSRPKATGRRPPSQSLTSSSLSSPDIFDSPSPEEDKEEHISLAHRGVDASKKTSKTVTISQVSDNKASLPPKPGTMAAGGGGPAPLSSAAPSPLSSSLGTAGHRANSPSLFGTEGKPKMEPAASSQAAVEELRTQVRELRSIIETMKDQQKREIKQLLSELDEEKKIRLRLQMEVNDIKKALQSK
R904G: the “effect of a mutation on the interaction” value is recorded as “decreasing interaction”.

A further test covers variants of B1. Conditions: with sh3k1_human SH3KBP1, Q96B97. The source holds these as a separate data set.
Regarding R911A, the “effect of a mutation on the interaction” value is reported as “decreasing interaction”.

Variants of B1 are the subject of the next test. Conditions: with cd2ap_human CD2AP. The source holds these as a separate data set.
R911A: the “effect of a mutation on the interaction” value was “decreasing interaction”.

Variants of B1 are the subject of the next test. Conditions: with cd2ap_human CD2AP. The source holds these as a separate data set.
For the variant K907L, the “effect of a mutation on the interaction” value is recorded as “decreasing interaction”.

Variants of B1 are the subject of another test. Conditions: with sh3k1_human SH3KBP1, Q96B97. The source holds these as a separate data set.
Consider K907L, for which the “effect of a mutation on the interaction” value was “decreasing interaction”.

Values taken from IntAct's records for PubMed 23663663.
